Reference: FireProtDB (doi:10.1093/protein/7.9.1089)
“And” between values parts separate entries of the source, which are not always exact repeats. Equal entries are not always repeated.

B1: Ribonuclease, P00648 (parent)
chain: MMKMEGIALKKRLSWISVCLLVLVSAAGMLFSTAAKTETSSHKAHTEAQVINTFDGVADYLQTYHKLPDNYITKSEAQALGWVASKGNLADVAPGKSIGGDIFSNREGKLPGKSGRTWREADINYTSGFRNSDRILYSSDWLIYKTTDHYQTFTKIR

Variants of: B1
Settings: Bacillus amyloliquefaciens, pH 4.4, Thermal, DSC, Sodium acetate/Acetic acid 6.08 mM/13.92 mM/, reversible: yes (>95%), structure 1BNI, whole UniProt chain shown; for ddG of mutation (higher = less stable) / heat capacity change of unfolding / unfolding free energy: 25 °C

Variant | ddG of mutation (higher = less stable) | heat capacity change of unfolding [kcal/mol/K] | unfolding free energy | Tm | change of melting temperature, mutant - wild type (higher = more stable) | unfolding enthalpy (calorimetric) | unfolding enthalpy (van 't Hoff)
R116M | 2.86 kcal/mol | 1.6 | 5.8 kcal/mol | 45.9 °C | -5.77 °C | 106 kcal/mol | 118 kcal/mol
I143V | 1.18 kcal/mol and 1.17 kcal/mol | 1.6 | 7.51 kcal/mol and 7.52 kcal/mol | 49.2 °C | -2.29 °C and -2.3 °C | 120 kcal/mol and 112 kcal/mol | 125 kcal/mol and 123 kcal/mol
D59G | 0.78 kcal/mol | 1.6 | 7.88 kcal/mol | 49.7 °C | -1.95 °C | 123 kcal/mol | 124 kcal/mol
S138A | 1.38 kcal/mol and 1.16 kcal/mol | 1.6 | 7.31 kcal/mol and 7.53 kcal/mol | 46.7 °C | -4.81 °C and -4.8 °C | 126 kcal/mol and 129 kcal/mol | 116 kcal/mol and 115 kcal/mol
S139A | 2.83 kcal/mol | 1.6 | 5.83 kcal/mol | 44.5 °C | -7.13 °C | 111 kcal/mol | 110 kcal/mol
T73G | 2.08 kcal/mol | 1.6 | 6.58 kcal/mol | 47.6 °C | -4.06 °C | 112 kcal/mol | 118 kcal/mol
D69M | 0.27 kcal/mol | 1.6 | 8.39 kcal/mol | 50.1 °C | -1.57 °C | 129 kcal/mol | 128 kcal/mol
D55A | 0.69 kcal/mol | 1.6 | 7.97 kcal/mol | 49.7 °C | -1.91 °C | 124 kcal/mol | 127 kcal/mol
D101N | 2.46 kcal/mol and 2.66 kcal/mol | 1.6 | 6.2 kcal/mol and 6 kcal/mol | 44.6 °C and 44.1 °C | -7.06 °C and -7.49 °C | 117 kcal/mol and 115 kcal/mol | 113 kcal/mol and 116 kcal/mol
T63R | -0.2 kcal/mol | 1.6 | 8.86 kcal/mol | 53 °C | 1.33 °C | 126 kcal/mol | 130 kcal/mol
I98V | 1.86 kcal/mol | 1.6 | 6.83 kcal/mol | 47 °C | -4.53 °C | 118 kcal/mol | 114 kcal/mol
I135V | 1.47 kcal/mol | 1.6 | 7.22 kcal/mol | 48.1 °C | -3.37 °C | 119 kcal/mol | 125 kcal/mol
R130Q | 1.58 kcal/mol | 1.6 | 7.08 kcal/mol | 48.3 °C | -3.29 °C | 117 kcal/mol | 122 kcal/mol
